From patent US20240084003A1 (SIMCERE ZAIMING PHARMACEUTICAL, published 2024)

T1: monkey CD22 on HEK293T-monkey CD22 cells (monkey)
T1 construct: full-length entry expressed on stably transfected HEK293T cells
T1 chain: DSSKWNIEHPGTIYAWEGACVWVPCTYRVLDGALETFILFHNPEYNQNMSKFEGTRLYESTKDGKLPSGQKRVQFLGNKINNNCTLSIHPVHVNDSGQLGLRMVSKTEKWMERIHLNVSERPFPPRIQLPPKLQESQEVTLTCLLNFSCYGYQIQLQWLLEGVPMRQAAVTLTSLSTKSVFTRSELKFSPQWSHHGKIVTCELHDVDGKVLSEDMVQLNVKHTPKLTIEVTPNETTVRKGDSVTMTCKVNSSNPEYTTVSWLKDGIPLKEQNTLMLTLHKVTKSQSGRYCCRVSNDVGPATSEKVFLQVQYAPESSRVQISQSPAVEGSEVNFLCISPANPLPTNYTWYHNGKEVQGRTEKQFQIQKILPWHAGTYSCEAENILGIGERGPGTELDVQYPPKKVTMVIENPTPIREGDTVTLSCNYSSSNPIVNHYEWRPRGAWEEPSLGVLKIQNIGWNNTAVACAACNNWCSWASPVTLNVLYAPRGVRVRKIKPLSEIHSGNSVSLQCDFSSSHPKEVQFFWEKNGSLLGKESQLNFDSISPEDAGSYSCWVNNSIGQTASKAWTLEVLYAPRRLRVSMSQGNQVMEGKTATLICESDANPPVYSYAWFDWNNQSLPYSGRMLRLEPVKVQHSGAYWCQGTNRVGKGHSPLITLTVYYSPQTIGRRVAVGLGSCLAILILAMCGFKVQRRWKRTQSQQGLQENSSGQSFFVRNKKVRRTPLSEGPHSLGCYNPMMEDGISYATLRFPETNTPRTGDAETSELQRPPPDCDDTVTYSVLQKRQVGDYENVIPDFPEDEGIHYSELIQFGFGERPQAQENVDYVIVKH


Target: T1, monkey CD22 on HEK293T-monkey CD22 cells
Assay: FACS, HEK293T-monkey CD22 cells
Method: For suspension cell Raji, the medium supernatant was directly centrifuged and discarded, and the cell pellet was washed 2 times with PBS. After counting the cells in the previous step, the cell pellet was resuspended with [PBS+2% (w/w) BSA] blocking solution to 2×10⁶ cells/ml, and added to a 96-well FACS reaction plate at 50 μl/well, and then the chimeric antibody test sample was added at 50 μl/well, and incubated on ice for 2 hours. The mixture was centrifuged and washed 3 times with PBS buffer, Alexa Flour 488-labeled secondary antibody (purchased from Invitrogen, catalog number: A-11013) was added at 50 μl/well, and incubated on ice for 1 hour. The obtained mixture was centrifuged and washed 5 times with PBS, and FACS (FACS Canto™, purchased from BD Company) was used for detection and result analysis. Data analysis was performed by software (CellQuest) to obtain the mean fluorescence density (MFI)of the cells. And then software (GraphPad Prism8) was used for analysis, data fitting, and EC50 value calculation. […] The same method was used to detect the binding of the chimeric antibodies to endogenous CD22-negative cell MoLT4 cells (purchased from ATCC, CRL-1582) and CHO-K1 cells.
HEK293T-monkey CD22 cells were subjected to FACS detection and data analysis according to the method in Example 5.2.

Row | Binder | EC50 [nM] | Maximum mean fluorescence intensity [MFI]
1 | F1.250.16 (antibody, human IgG1, kappa, V domains shown, human-murine chimeric IgG1 kappa; VL name legible) VH: QVQLQQSGAEQVKPGASVKMSCKASGYTFTTYPIEWMKQNHGESLDWIGNIHPYNDDTEYNEKFKGKATLTVEKSSNTVFLELSRLTSDDSAVYYCVRGDYYNSRYWYFDVWGTGTTVTVSS VL: DIVMTQSQKFMSTTVGDRVSITCKAGQNVRTAVAWYQQKPGQSPKLLIYSASTRYIGVPERFTGSGSGTDFTLTITNMQSEDLADYFCQQYSSFPLTFGTGTKLELKR | 0.31 | 19700
2 | F1.192.1 (antibody, human IgG1, kappa, V domains shown, human-murine chimeric IgG1 kappa) VH: AVQLQQSGVELVRPGASVKLSCTGSDFNIKEDYIHWVKQRPEQGLEWIGWIDPENGDTEYASKFQGKATITADTSSNTAYLQLSSLTSEDTAVYYCATYGSLDYWGQGTTLTVSS VL: DIKMTQSPSSMYAFLGERVTITCKASQGINSFLTWFQQKPGKSPKTLIYRANRLVDGVPSRFSGSGSGQDYSLTISSLEYEDVGIYYCLQYDEFPRTFGGGTKLEIKR | 0.62 | 16300
3 | F1.60.9 (antibody, human IgG1, kappa, V domains shown, human-murine chimeric IgG1 kappa) VH: QVQLKESGPGLVAPSQSLSITCTVSGLSLNNYGVSWVRQPPGKGLEWLGVIWGDGSTNYHSALISRLSISKDNSKSQVFLKLNSLHTDDTATYYCAINWGDYWGQGTTLIVSS VL: DIKMTQSPSSMNASLGERVTITCKASQDINSYLSWFQQKPGKSPKILIYRANRLIDGVPSRFSGSGSGQDYSLTISSLEYEDMGIYYCLQYGVFPLTFGAGTKLELKR | – | 531
4 | F1.172.13 (antibody, human IgG1, kappa, V domains shown, human-murine chimeric IgG1 kappa) VH: QVTLKESGPGILQSSQTLSLTCSFSGFSLSTSGMGVSWIRQPSGKGLEWLAHIYWDDDKRYNPSLKSRLTISKDTSRNQVFLKITSVDTADTATYYCARAPPPNWDEYYFDYWGQGTTLTVSS VL: DIQMTQSPASLSASVGETVTITCRASGNIHNSLAWYQQKQGKSPQLLVHNAKTLADGVPSRFSGSGSGTQYSLKINSLQPEDFGSYYCQHFWSTPPFGGGTKLEIKR | 0.47 | 19000
5 | F1.7.6 (antibody, human IgG1, kappa, V domains shown, human-murine chimeric IgG1 kappa; VL name legible) VH: EIQLQQSGPELVKPGTSVKVSCKASGYDFTRYNMYWVKQSHGKSLEWIGYIDPYNGDTRYNQKFKGKATLTVDKSSSTAYMHLNSLTSEDSAVYYCEAIYYDMEGYALDYWGQGTSVTVSS VL: DIVMSQSPSSLAVSVGEKVTMSCKSSQSLLYSNNQKNYLAWYQQKPGQSPKKLIYWASTRESGVPDRLTGSGSGTDFTLTISSVTAEDLAVYYCQQFYSYPWTFGGGTKLEIKR | 2.22 | 9220
6 | F1.120.15 (antibody, human IgG1, kappa, V domains shown, human-murine chimeric IgG1 kappa) VH: QVQLQQSGPELVKPGASVKISCKASGNAFSNSWMNWVKQRPGKGLEWIGRVYSEDGDTQYNGKFRDKATLTADRSTSTAYMQLSSLTSEDSAVYFCARWLIYYGTYGAMDYWGQGTSVTVSS VL: DIQMTQTTSSLSASLGDRVTISCRASQDINNYLNWYHQKPDGTVKLLIYFTSRPYSGVPSRFSGSGSGTDYSLTISNLEQEDIATYFCQQGNTLPWTFGGGTKLEIKR | 0.95 | 13600
7 | F1.200.11 (antibody, human IgG1, kappa, V domains shown, human-murine chimeric IgG1 kappa) VH: QNQLVQSGPELKKPGETVKISCKASGYTFTTAGMQWVQKMPGKGFKWIGWINTLSGEPKYAEDFKGRFAFSLETSATTAYLQISNLKNEDTATYFCARAYYSNLYWYFDVWGTGTTVTVSS VL: DIVMTQSQKFMSTTVGDRVTITCKASQNVVTAVAWYQQKPGQSPKVLIYSASNRYSGVPDRFTGSGSGTDFTLTISNMHSEDLANYFCHQYSSYPFTFGSGTKLEIKR | 4.32 | 16200
8 | F1.224.1 (antibody, human IgG1, kappa, V domains shown, human-murine chimeric IgG1 kappa; VL name legible) VH: EVLLHQSGPELVKPGASVKISCKASGYTFTDFNMDWVRQRHGQSLEWIGDVNPNNGGTIYNQKFKGKATLTVDKSSSTVYMDLRSLTSDDTAVYYCVRLGTSDYGEAWFISWGQGTVVTVSA VL: DIVLTQSPASLAVSLGQRATISCRASQSVSTPRYSFMHWYQQKPGQPPKLLIKYASNLESGFPARFTGSGSGTDFTLNIHPVEEEDTAAYYCQQSWAIPWTFGGGTKLEIKR | 0.79 | 16300
9 | F1.231.15 (antibody, IgG1, V domains shown, human-murine chimeric IgG1 kappa) VH: QVQLQQPGAELVKPGASVKLSCKTSGYTFTIYWMQWVKQRPGRGLEWIGRIDPHSGDTHYNENFTTKVTLTVDETSNTAYMHLSGLTSEDSAVYYCARRDYSYYVLDYWGQGTSVTVSS VL: DVVLTQTPLSLPVSLGDQASISCRSSQSLVHINGDTYLHWYLQKPGQSPKLLIYTVFNRFSGVPDRFSGSGSGTDFTLKISRVEAEDLGAYFCSQSTHVPYTFGGGTKLEIKR | 12.3 | 9250
10 | F1.257.3 (antibody, human IgG1, kappa, V domains shown, human-murine chimeric IgG1 kappa; VL name legible) VH: QVQLQQSGPELARPGASVKLSCKASGYTFTSYGISWVKQRTGQDLEWIGEIYPKLGTTYYNEKFKDKATLTTDRSSSTAYMALRSLTSEDSAVYFCACPHYYATRGGDYWGQGTTLTVSS VL: EIVLTQSPATLSVTPGDSVTFSCRASQSISNHLHWYQQKSHESPRLLIRYASQSISGIPSRFSGSGSGTDFTLSLSSVETEDFGVYFCQQSHSWPYTFGGGTKLEIAR | – | 147
11 | F1.216.2 (antibody, human IgG1, kappa, V domains shown, human-murine chimeric IgG1 kappa) VH: QVQLQQSGPEVVRPGASVKISCKASGYAFSSSWMNWMKQRPGKALEWIGRIYPGDGDTNYSGEFKVKATLTADKSSSTAYMQLSSLTSEDSAVYFCAREGSYYSNPWYFDYWGQGTTLTVSS VL: DVLVTQTPLSLPVSLGDQASISCRSSQSIVQSNGDTYLEWYLQKPGQSPKLLIYKVSNRFSGVPDRFSGSGSGTDFTLKISRVEAEDLGVYYCFQGSHVPFTFGSGTKLEIKR | 0.26 | 13900
12 | F1.267.9 (antibody, human IgG1, kappa, V domains shown, human-murine chimeric IgG1 kappa; VL name legible) VH: EVQLQQSGPVLVKPGASVKMSCKASGYTFTDFYMNWAKQSHGKSLEWVGVINPYNGGINYNQKFKGKATLTVDKSSSTAYMEFNSLTSEDSAVYYCARRMEYHAMDYWGQGTSVTVSS VL: DIVLTQSPASLAVSLGQRATISCRASESVDNYGFDFIHWYQQKPGQPPKLLIYRASNLESGIPARFSGSGSRPDFTLTINPVETDDVATYYCQQSIKDPWTFGGGTKLEIKR | 1.15 | 15300
13 | F1.105.11 (antibody, human IgG1, kappa, V domains shown, human-murine chimeric IgG1 kappa; VL name legible) VH: EVQLQQSGPVLVKPGASVKMSCKASGYTFSDYFMNWVKQSHGKSLEWIGIINSYSGGTSYNQKFKGKATLTVDKSSSTAYMELNSLTSEDSAVYYCARWMDYWGQGTSVTVSS VL: DVQITQSPSYLAASPGETITINCRTSESISKHLAWYQEKPGKTNKLLIYSGSTLQSGIPSRFSGSGSGTDFTLTISSLEPEDFAMYYCQQHNEYPWTFGGGTKLEIKR | 1.3 | 7530
14 | F1.17.1 (antibody, human IgG1, kappa, V domains shown, human-murine chimeric IgG1 kappa) VH: QVQLKESGPGLVAPSQSLSITCTVSGFSLSRYTVHWVRQPPGKGLEWLGMIWGGGSTDYNSALKSRLSISKDNSKSQVFLKMNSLQTDDTAMYYCARPHDFDAGGFAYWGQGTLVTVSA VL: QIVLTQSPAILSTSPGEKVTMTCSASSRVNYMYWYQQKPGSSPRLLIYDTSNLASGVPVRFSGSGSGTSYSLTISRMEAEDAATYYCQQWTSYPLTFGAGTKLELKR | 0.38 | 17200
15 | F1.245.2 (antibody, human IgG1, kappa, V domains shown, human-murine chimeric IgG1 kappa) VH: EVQLQQSGAELVKPGASVKLSCTGSGFNIKDYYIHWVKQRTEQGLEWMGRIDPEDGETEYAPKFQDEATITSDTSSNTAYLQLSSLTYEDTAVYYCAREAAGYFYRGSSYGYFDVWGTGTTVTVSS VL: DFQMTQTTSFLSASLGDRVTISCSASQDISNYLNWYQQKPDGTVKLLIYYTSSLHSGVPSRFSGSGSGTDYSLTISNLEPEDIATYYCQQYSMLPYTFGGGTKLEMER | – | 124
